The target of experiment [1] is T1, mouse CNTN4-rabbit Fc (mouse; rabbit, UniProt Q69Z26 19-1000, limits assumed).
T1 construct: not shown: rabbit Fc
T1 sequence (looked up): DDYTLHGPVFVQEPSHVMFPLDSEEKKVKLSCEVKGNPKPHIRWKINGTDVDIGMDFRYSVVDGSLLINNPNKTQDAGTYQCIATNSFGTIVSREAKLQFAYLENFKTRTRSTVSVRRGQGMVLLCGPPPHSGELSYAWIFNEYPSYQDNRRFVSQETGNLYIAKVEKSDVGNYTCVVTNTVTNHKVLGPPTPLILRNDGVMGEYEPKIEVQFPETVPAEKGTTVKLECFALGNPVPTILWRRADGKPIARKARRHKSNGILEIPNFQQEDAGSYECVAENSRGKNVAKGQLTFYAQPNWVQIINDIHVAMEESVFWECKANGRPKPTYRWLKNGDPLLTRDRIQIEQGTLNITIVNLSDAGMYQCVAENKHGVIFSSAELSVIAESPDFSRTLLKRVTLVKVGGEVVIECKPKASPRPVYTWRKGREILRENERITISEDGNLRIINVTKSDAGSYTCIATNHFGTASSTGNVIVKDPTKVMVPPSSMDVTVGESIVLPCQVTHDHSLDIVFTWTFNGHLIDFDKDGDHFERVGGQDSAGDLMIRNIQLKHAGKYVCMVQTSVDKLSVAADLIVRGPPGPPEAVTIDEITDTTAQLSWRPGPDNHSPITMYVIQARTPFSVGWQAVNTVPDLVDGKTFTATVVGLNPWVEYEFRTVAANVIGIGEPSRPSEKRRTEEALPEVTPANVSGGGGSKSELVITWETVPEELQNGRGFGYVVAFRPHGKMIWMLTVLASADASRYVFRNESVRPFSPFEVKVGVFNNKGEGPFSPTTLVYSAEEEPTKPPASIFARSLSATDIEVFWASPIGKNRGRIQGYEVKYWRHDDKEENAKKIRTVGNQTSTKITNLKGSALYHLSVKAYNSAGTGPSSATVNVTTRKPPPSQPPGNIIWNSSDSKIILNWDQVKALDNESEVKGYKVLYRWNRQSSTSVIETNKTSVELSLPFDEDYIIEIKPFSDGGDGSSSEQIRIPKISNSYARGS
Briefly: ELISA, plate coated with antigen-rabbit Fc, anti-human kappa-HRP.

Experiment [2] addresses T2, human CNTN4-rabbit Fc (human; rabbit, UniProt Q8IWV2 19-1000, limits assumed).
T2 construct: not shown: rabbit Fc
T2 sequence (looked up): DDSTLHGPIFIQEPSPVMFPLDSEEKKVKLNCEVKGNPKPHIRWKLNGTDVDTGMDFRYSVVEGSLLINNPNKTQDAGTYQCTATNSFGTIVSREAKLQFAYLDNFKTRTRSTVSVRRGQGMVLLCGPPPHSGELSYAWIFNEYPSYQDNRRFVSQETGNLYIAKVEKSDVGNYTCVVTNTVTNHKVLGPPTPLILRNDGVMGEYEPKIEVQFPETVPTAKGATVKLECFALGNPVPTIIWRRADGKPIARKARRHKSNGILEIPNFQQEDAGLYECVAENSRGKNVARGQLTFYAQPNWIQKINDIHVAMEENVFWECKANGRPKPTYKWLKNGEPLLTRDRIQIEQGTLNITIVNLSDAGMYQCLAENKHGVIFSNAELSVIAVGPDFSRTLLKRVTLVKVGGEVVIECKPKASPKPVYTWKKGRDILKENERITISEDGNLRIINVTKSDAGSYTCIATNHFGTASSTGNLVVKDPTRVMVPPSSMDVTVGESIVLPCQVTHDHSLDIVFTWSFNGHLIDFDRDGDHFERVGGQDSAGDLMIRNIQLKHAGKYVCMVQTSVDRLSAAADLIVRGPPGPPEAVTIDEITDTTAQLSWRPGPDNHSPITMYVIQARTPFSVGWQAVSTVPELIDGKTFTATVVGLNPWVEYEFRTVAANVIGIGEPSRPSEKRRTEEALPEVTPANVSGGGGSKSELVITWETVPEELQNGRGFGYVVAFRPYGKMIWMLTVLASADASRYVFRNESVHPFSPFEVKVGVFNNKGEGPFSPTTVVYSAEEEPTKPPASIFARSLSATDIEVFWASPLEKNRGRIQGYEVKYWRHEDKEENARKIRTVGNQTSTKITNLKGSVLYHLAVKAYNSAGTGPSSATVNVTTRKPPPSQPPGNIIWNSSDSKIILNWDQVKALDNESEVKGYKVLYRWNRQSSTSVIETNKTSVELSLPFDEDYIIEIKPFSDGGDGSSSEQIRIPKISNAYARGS
The description is as above.

The target of experiment [3] is T3, human CNTN4 antigen expressed on the cell membrane of 293FT cells (human) (UniProt Q8IWV2).
T3 sequence (looked up): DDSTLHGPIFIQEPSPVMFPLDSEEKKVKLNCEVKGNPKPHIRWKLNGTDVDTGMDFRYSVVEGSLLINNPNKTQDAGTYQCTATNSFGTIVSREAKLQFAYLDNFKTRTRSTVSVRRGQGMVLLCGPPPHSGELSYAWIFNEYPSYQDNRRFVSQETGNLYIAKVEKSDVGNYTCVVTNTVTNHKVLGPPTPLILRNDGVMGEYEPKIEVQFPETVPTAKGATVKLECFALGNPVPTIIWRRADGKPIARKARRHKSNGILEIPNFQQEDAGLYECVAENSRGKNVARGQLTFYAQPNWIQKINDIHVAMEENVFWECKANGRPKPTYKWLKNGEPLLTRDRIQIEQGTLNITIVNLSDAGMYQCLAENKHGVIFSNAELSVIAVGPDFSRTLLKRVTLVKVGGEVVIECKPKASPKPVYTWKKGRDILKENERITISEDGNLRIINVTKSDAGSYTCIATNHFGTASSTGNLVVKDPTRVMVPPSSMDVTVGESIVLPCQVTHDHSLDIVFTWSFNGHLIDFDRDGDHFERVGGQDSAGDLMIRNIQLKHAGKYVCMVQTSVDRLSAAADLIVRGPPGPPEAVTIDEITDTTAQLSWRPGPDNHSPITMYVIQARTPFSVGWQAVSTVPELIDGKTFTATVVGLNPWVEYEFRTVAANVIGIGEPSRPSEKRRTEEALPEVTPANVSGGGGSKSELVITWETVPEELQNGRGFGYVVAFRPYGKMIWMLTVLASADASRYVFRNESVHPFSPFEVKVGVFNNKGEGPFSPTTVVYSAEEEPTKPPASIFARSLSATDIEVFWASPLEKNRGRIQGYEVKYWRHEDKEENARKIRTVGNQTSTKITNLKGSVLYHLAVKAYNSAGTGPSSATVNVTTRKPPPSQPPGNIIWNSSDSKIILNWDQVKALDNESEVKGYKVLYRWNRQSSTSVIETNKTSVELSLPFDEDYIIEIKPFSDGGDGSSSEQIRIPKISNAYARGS
Nature of the experiment: FACS, 293FT cells transfected with human CNTN4, 40 ug/mL, anti-hCk-PE.

B1: anti-CNTN4 scFv-hCk S24 (scFv, part only; not given: linker and kappa constant region, not shown: a dimerising Fc or GST)
scFv, part: ALTQPSSVSANPGETVEITCSGGSGSYGWYQQKAPGSAPVTVIYDNTNRPSNIPSRFSGSGSDSTGTLTITGVQADDEAVYYCGSYDSIEVIFGAGTTLTVLAVTLDESGGGLHTPGGALSLVCKASGFTFSSYGMAWVRQAPGKGLEWVAGITSSGSSAGYGPAVKGRATISRDNGQSTVRLQLNNLRAEDTATYYCAKDGYIYSGGDSDSIDAWGHGTEVIVSS
Usually EC50 stands for the concentration giving half of the maximal effect. Regarding B1, the EC50 in experiment [1] is 2.07 nM; in experiment [2], 1.12 nM. Besides, the Shift % in experiment [3] worked out at 5.63%.

B2: anti-CNTN4 scFv-hCk S46 (scFv, part only; not given: linker and kappa constant region, not shown: a dimerising Fc or GST)
scFv, part: ALTQPSSVSANPGETVEITCSGGSGSYGWYQQKAPGSAPVTVIYDNTNRPSNIPSRFSGSGSDSTGTLTITGVQADDKAVYYCGSYDSIEVIFGAGTTLTVLAVTLDESGGGLHTPGGALSLVCKASGFTFSSYGMAWVRQAPGKGLEWVAGITSSGSSAGYGPAVKGRATISRDNGQSTVRLQLNNLRAEDTATYYCAKDGYIYSGADSDSIDAWGHGTEVIVSS
For B2, the EC50 was found to be 1.2 nM in experiment [1] and 1.22 nM in experiment [2]. The Shift % in experiment [3] is 8.19%.

B3: anti-CNTN4 scFv-hCk S129 (scFv, part only; not given: linker and kappa constant region, not shown: a dimerising Fc or GST)
scFv, part: ALTQPSSVSANLGETVKITCSGSSGSYGWYQQKSPGSAPVTLIYDNTNRPSDIPSRFSGSGSGSTGTLTITGVRAEDEAVYYCGGYDGSTDVFGAGTTLTVLAVTLDESEGGLQTPGGALSLVCKASGFTFSSFNMFWVRQAPGKGLEYVAEISGGGGSTWYAPAVKGRATISRDNGQSTVRLQLNNLRAEDTGTYYCAKSADTWSYGAATIDAWGHGTEVIVSS
As for B3, the concentration giving a half-maximal response (EC50) in experiment [1] is 0.37 nM; in experiment [2], 0.55 nM. Further, in experiment [3], the Shift % was 16%.

B4: anti-CNTN4 scFv-hCk S1 (scFv, part only; not given: linker and kappa constant region, not shown: a dimerising Fc or GST)
scFv, part: ALTQPSSVSANPGETVKITCSGGSSYGWYQQKSPGSAPVTVIYDNTNRPSNIPSRFSGSKSGSTNTLTITGVRAEDEAVYFCGGYDSSIDAFGAGTTLTVLAVTLDESEGGLQTPGGALSLVCKASGFTFSSFNMFWVRQAPGKGLEYVAEISGGGGSTWYAPAVKGRATISRDNGQSTVRLQLNNLRAEDTGTYYCAKSADTWSYGAATIDAWGHGTEVIVSS
With B4, the EC50 in experiment [1] came out at 1.53 nM; in experiment [2] it was 4.44 nM. In experiment [3], the Shift % stood at 13.8%.

B5: anti-CNTN4 scFv-hCk S96 (scFv, part only; not given: linker and kappa constant region, V domains shown, not shown: another chain or arm of the molecule; a dimerising Fc or GST; small tags and cut ends)
VL: ALTQPSSVSANPGETVKITCSGSSGSYGYSWHQQKSPGSAPVTVIYESNKRPSNIPSRFSGSTSGSTSTLTITGVQADDEAVYFCGSADSSTTIAFGAGTTLTVL
VH: AVTLDESGGGLQTPGGTLSLVCKASGFTFSTYSMQWLRQAPGKGLEWVAGISNSGSSTVYGPAVKGRATISRDNGQSTVSLQLNNLRAEDTGTYYCAKSTYGGSWYAAYSIDEWGHGTEVIVSS
On to B5, for which, in experiment [3], the Shift % was 1.69%.

The record behind these values is patent US20240182563A1 (GENOME, published 2024).
